Data on one substance can be found in publication PMC2172719.

The target of the experiment is Ufd1–Npl4ΔZF complex (UniProt Q9ES53). Put plainly: co-IP.

In the case of “polyubiquitin chains with lysine 63 linkages (from UniProt P0CG53 1-76)”, the percent of the input material bound was < 5%.
